{"source": "FireProtDB (doi:10.1021/bi00174a031)", "parents": {"B1": {"name": "Phosphoglycerate kinase, P00560 (parent)", "chain": "MSLSSKLSVQDLDLKDKRVFIRVDFNVPLDGKKITSNQRIVAALPTIKYVLEHHPRYVVLASHLGRPNGERNEKYSLAPVAKELQSLLGKDVTFLNDCVGPEVEAAVKASAPGSVILLENLRYHIEEEGSRKVDGQKVKASKEDVQKFRHELSSLADVYINDAFGTAHRAHSSMVGFDLPQRAAGFLLEKELKYFGKALENPTRPFLAILGGAKVADKIQLIDNLLDKVDSIIIGGGMAFTFKKVLENTEIGDSIFDKAGAEIVPKLMEKAKAKGVEVVLPVDFIIADAFSADANTKTVTDKEGIPAGWQGLDNGPESRKLFAATVAKAKTIVWNGPPGVFEFEKFAAGTKALLDEVVKSSAAGNTVIIGGGDTATVAKKYGVTDKISHVSTGGGASLELLEGKELPGVAFLSEKK"}}, "variants_of": "B1", "conditions": "Saccharomyces cerevisiae (strain ATCC 204508 / S288c), pH 7.5, 25 °C, GdnHCl, Sodium phosphate 20 mM, structure 3PGK, whole UniProt chain shown"}
{"variant": "MSLSSKLSVQDLDLKDKRVFIRVDFNVPLDGKKITSNQRIVAALPTIKYVLEHHPRYVVLASHLGRPNGERNEKYSLAPVAKELQSLLGKDVTFLNDCVGPEVEAAVKASAPGSVILLENLRYHIEEEGSRKVDGQKVKASKEDVQKFRHELSSLADVYINDAFGTAHRAHSSMVGFDLPQRAAGFLLEKELKYFGKALENPTRPFLAILGGAKVADKIQLIDNLLDKVDSIIIGGGMAFTFKKVLENTEIGDSIFDKAGAEIVPKLMEKAKAKGVEVVLPVDFIIADAFSADANTKTVTDKEGIPAGWQGLDNGPESRKLFAATVAKAKTIVFNGPPGVFEFEKFAAGTKALLDEVVKSSAAGNTVIIGGGDTATVAKKYGVTDKISHVSTGGGASLELLEGKELPGVAFLSEKK", "note": "[W334F]", "values": [{"measurement": "ddG of mutation (higher = less stable)", "setting": "CD", "value": 3.93, "unit": "kcal/mol"}, {"measurement": "denaturant m value", "setting": "CD", "value": 8.4, "unit": "kcal/mol/M"}, {"measurement": "denaturant midpoint (higher = more stable)", "setting": "CD", "value": 0.63, "unit": "M"}, {"measurement": "unfolding free energy", "setting": "CD", "value": 5.38, "unit": "kcal/mol"}]}
{"variant": "MSLSSKLSVQDLDLKDKRVFIRVDFNVPLDGKKITSNQRIVAALPTIKYVLEHHPRYVVLASHLGRPNGERNEKYSLAPVAKELQSLLGKDVTFLNDCVGPEVEAAVKASAPGSVILLENLRYHIEEEGSRKVDGQKVKASKEDVQKFRHELSSLADVYINDAFGTAHRAHSSMVGFDLPQRAAGFLLEKELKYFGKALENPTRPFLAILGGAKVADKIQLIDNLLDKVDSIIIGGGMAFTFKKVLENTEIGDSIFDKAGAEIVPKLMEKAKAKGVEVVLPVDFIIADAFSADANTKTVTDKEGIPAGFQGLDNGPESRKLFAATVAKAKTIVFNGPPGVFEFEKFAAGTKALLDEVVKSSAAGNTVIIGGGDTATVAKKYGVTDKISHVSTGGGASLELLEGKELPGVAFLSEKK", "note": "[W309F W334F]", "values": [{"measurement": "ddG of mutation (higher = less stable)", "setting": "CD", "value": 6.33, "unit": "kcal/mol"}, {"measurement": "denaturant m value", "setting": "CD", "value": 6.1, "unit": "kcal/mol/M"}, {"measurement": "denaturant midpoint (higher = more stable)", "setting": "CD", "value": 0.48, "unit": "M"}, {"measurement": "unfolding free energy", "setting": "CD", "value": 2.98, "unit": "kcal/mol"}, {"measurement": "ddG of mutation (higher = less stable)", "setting": "Fluorescence", "value": 8.72, "unit": "kcal/mol"}, {"measurement": "denaturant m value", "setting": "Fluorescence", "value": 5.9, "unit": "kcal/mol/M"}, {"measurement": "denaturant midpoint (higher = more stable)", "setting": "Fluorescence", "value": 0.49, "unit": "M"}, {"measurement": "unfolding free energy", "setting": "Fluorescence", "value": 3.03, "unit": "kcal/mol"}]}
{"variant": "MSLSSKLSVQDLDLKDKRVFIRVDFNVPLDGKKITSNQRIVAALPTIKYVLEHHPRYVVLASHLGRPNGERNEKYSLAPVAKELQSLLGKDVTFLNDCVGPEVEAAVKASAPGSVILLENLRYHIEEEGSRKVDGQKVKASKEDVQKFRHELSSLADVYINDAFGTAHRAHSSMVGFDLPQRAAGFLLEKELKYFGKALENPTRPFLAILGGAKVADKIQLIDNLLDKVDSIIIGGGMAFTFKKVLENTEIGDSIFDKAGAEIVPKLMEKAKAKGVEVVLPVDFIIADAFSADANTKTVTDKEGIPAGFQGLDNGPESRKLFAATVAKAKTIVWNGPPGVFEFEKFAAGTKALLDEVVKSSAAGNTVIIGGGDTATVAKKYGVTDKISHVSTGGGASLELLEGKELPGVAFLSEKK", "note": "[W309F]", "values": [{"measurement": "ddG of mutation (higher = less stable)", "setting": "CD", "value": 3.63, "unit": "kcal/mol"}, {"measurement": "denaturant m value", "setting": "CD", "value": 8.4, "unit": "kcal/mol/M"}, {"measurement": "denaturant midpoint (higher = more stable)", "setting": "CD", "value": 0.67, "unit": "M"}, {"measurement": "unfolding free energy", "setting": "CD", "value": 5.68, "unit": "kcal/mol"}, {"measurement": "ddG of mutation (higher = less stable)", "setting": "Fluorescence", "value": 3.71, "unit": "kcal/mol"}, {"measurement": "denaturant m value", "setting": "Fluorescence", "value": 12.8, "unit": "kcal/mol/M"}, {"measurement": "denaturant midpoint (higher = more stable)", "setting": "Fluorescence", "value": 0.63, "unit": "M"}, {"measurement": "unfolding free energy", "setting": "Fluorescence", "value": 8.04, "unit": "kcal/mol"}]}
